In paper PMC11271494, “Multi-domain interaction mediated strength-building in human α-actinin dimers unveiled by direct single-molecule quantification” (Nature Communications, 2024):

B3: human α-actinin 1 rod domain SR1–SR2–SR3–SR4 (shear–force constructs) (domain or fragment, UniProt P12814 267-745, looked up)
chain: AVNQENEQLMEDYEKLASDLLEWIRRTIPWLENRVPENTMHAMQQKLEDFRDYRRLHKPPKVQEKCQLEINFNTLQTKLRLSNRPAFMPSEGRMVSDINNAWGCLEQVEKGYEEWLLNEIRRLERLDHLAEKFRQKASIHEAWTDGKEAMLRQKDYETATLSEIKALLKKHEAFESDLAAHQDRVEQIAAIAQELNELDYYDSPSVNARCQKICDQWDNLGALTQKRREALERTEKLLETIDQLYLEYAKRAAPFNNWMEGAMEDLQDTFIVHTIEEIQGLTTAHEQFKATLPDADKERLAILGIHNEVSKIVQTYHVNMAGTNPYTTITPQEINGKWDHVRQLVPRRDQALTEEHARQQHNERLRKQFGAQANVIGPWIQTKMEEIGRISIEMHGTLEDQLSHLRQYEKSIVNYKPKIDQLEGDHQLIQEALIFDNKHTNYTMEHIRVGWEQLLTTIARTINEVENQILTRDAKGISQ
modifications: biotin on the AviTag (second rod of the homo-dimer construct)
notes: human α-actinin 1 (ACTN1), central rod domain of four spectrin-like repeats SR1–SR2–SR3–SR4; a full SR rod with the helical linker region has about 480 amino acids; Stood in single-chain chimeras: Spy003–(SR1–SR4)ACTN1–(GS linker, about 170 aa)–AviTag–(SR1–SR4)ACTN1 (homo-dimer; first rod bears SpyTag003, second rod the biotinylated AviTag) and Spy003–(SR1–SR4)ACTN1–(GS …)

Columns and labels:
[1] = molecular target: Entamoeba histolytica α-actinin 2 rod SR1–SR2 (Entamoeba histolytica); experiment: single-molecule magnetic tweezers; shear–force geometry; the two partners on one chain joined by a long flexible GS linker, tethered via SpyTag003 to a SpyCatcher-coated coverslip and via the biotinylated AviTag to a streptavidin/neutravidin bead; linear force-increase scans (5 pN/s; 1 pN/s for SR2–SR3:SR2–SR3; 1 and 5 pN/s for E. histolytica) and force-decrease scans (−0.1 pN/s); 1× PBS, 1% BSA, 1 mM DTT, 10 mM sodium L-ascorbate, 22 ± 1 °C
[2] = molecular target: Entamoeba histolytica α-actinin 2 rod SR1–SR2 (Entamoeba histolytica); experiment: single-molecule magnetic tweezers; shear–force geometry; same tethered single-chain constructs; force–jump cycles, dwell time until rupture at a target force, lifetime by exponential fit with bootstrap analysis; 1× PBS, 1% BSA, 1 mM DTT, 10 mM sodium L-ascorbate, 22 ± 1 °C
[3] = molecular target: the molecule itself; experiment: as above
[4] = molecular target: B3; experiment: as above; settings: both partners purified
[5] = molecular target: T1, human α-actinin 1 SR2–SR3–SR4 (human, UniProt P12814 385-745); experiment: as above; settings: both partners purified
T1 construct: human α-actinin 1 (ACTN1), spectrin-like repeats SR2–SR3–SR4 of the rod; First half of the single-chain chimera Spy003–(SR2–SR3–SR4)ACTN1–(GS linker)–AviTag–(SR1–SR2–SR3)ACTN1; joined to m5 by the linker; also called (SR2–SR3–SR4)_(ACTN1); not shown: SpyTag003, N-terminal, kept

In the case of “Entamoeba histolytica α-actinin 2 rod SR1–SR2 (domain or fragment)”, the peak rupture force (second state, 5 pN/s) [1] is reported as 20 pN, the peak rupture force (strongest state, 5 pN/s) [1] is reported as 33 pN and the rupture force (third state) [1] is reported as 5 pN. The lifetime at forces <10 pN (second state) [2] was > 10 s, the lifetime at forces <10 pN (third state) [2] was > 1 s and the lifetime at forces <15 pN (strongest state) [2] was > 100 s.

B1: human α-actinin 4 rod domain SR1–SR2–SR3–SR4 (domain or fragment, UniProt O43707 286-764, looked up)
chain: AVNQENEHLMEDYEKLASDLLEWIRRTIPWLEDRVPQKTIQEMQQKLEDFRDYRRVHKPPKVQEKCQLEINFNTLQTKLRLSNRPAFMPSEGKMVSDINNGWQHLEQAEKGYEEWLLNEIRRLERLDHLAEKFRQKASIHEAWTDGKEAMLKHRDYETATLSDIKALIRKHEAFESDLAAHQDRVEQIAAIAQELNELDYYDSHNVNTRCQKICDQWDALGSLTHSRREALEKTEKQLEAIDQLHLEYAKRAAPFNNWMESAMEDLQDMFIVHTIEEIEGLISAHDQFKSTLPDADREREAILAIHKEAQRIAESNHIKLSGSNPYTTVTPQIINSKWEKVQQLVPKRDHALLEEQSKQQSNEHLRRQFASQANVVGPWIQTKMEEIGRISIEMNGTLEDQLSHLKQYERSIVDYKPNLDLLEQQHQLIQEALIFDNKHTNYTMEHIRVGWEQLLTTIARTINEVENQILTRDAKGISQ
modifications: biotin on the AviTag (second rod of the construct)
notes: human α-actinin 4 (ACTN4), central rod domain of four spectrin-like repeats SR1–SR2–SR3–SR4; here the ACTN4 rod bears the biotinylated AviTag; also called (SR1–SR2–SR3–SR4)_(ACTN4); not shown: SpyTag003, N-terminal, kept; AviTag, N-terminal, kept
For B1, the “lifetime within 40 pN (shear geometry)” value [3] was > 100 s and the “lifetime within 40 pN (shear geometry)” value [4] was > 100 s.

B2: human α-actinin 1 SR1–SR2–SR3 (domain or fragment, UniProt P12814 267-625, looked up)
chain: AVNQENEQLMEDYEKLASDLLEWIRRTIPWLENRVPENTMHAMQQKLEDFRDYRRLHKPPKVQEKCQLEINFNTLQTKLRLSNRPAFMPSEGRMVSDINNAWGCLEQVEKGYEEWLLNEIRRLERLDHLAEKFRQKASIHEAWTDGKEAMLRQKDYETATLSEIKALLKKHEAFESDLAAHQDRVEQIAAIAQELNELDYYDSPSVNARCQKICDQWDNLGALTQKRREALERTEKLLETIDQLYLEYAKRAAPFNNWMEGAMEDLQDTFIVHTIEEIQGLTTAHEQFKATLPDADKERLAILGIHNEVSKIVQTYHVNMAGTNPYTTITPQEINGKWDHVRQLVPRRDQALTEEHARQ
modifications: biotin on the AviTag
notes: human α-actinin 1 (ACTN1), spectrin-like repeats SR1–SR2–SR3 of the rod; Second half of the single-chain chimera Spy003–(SR2–SR3–SR4)ACTN1–(GS linker)–AviTag–(SR1–SR2–SR3)ACTN1; joined to m4 by the linker; also called (SR1–SR2–SR3)_(ACTN1); not shown: AviTag, N-terminal, kept
B2 was tested, and the “fold decrease of the force-dependent lifetime against the full rod dimer (m1 with m1)” value [5] was ~1000 fold.

In the case of B3, the “lifetime within 40 pN (shear geometry)” value [3] is reported as > 100 s.
